# Assay results taken from patent US20180355059A1.
# B1: 103C11E8, chimeric anti-PCSK9 antibody from hybridoma (antibody, V domains shown)
# VH: QVQLQESGPGLVKPSGTLSLTCAVSGGSISSSNWWSWVRQPPGKGLEWIGEIYHSGSTNYNPSLKSRVTISVDKSKNQFSLKLSSVTAADTAVYYCARGIAVAGTDVMDAWGQGASVTVSS
# VL: EIVLTQSPATLSLSPGERATLSCRASQSVSSYLVWYQQKSGQAPRLLIYGTSNRATGIPARFSGSGSGTDFTLTISSLEPEDFALYYCQQRGNWMYTFGQGTKLEIK
# modifications: here or on the partner: biotinylated in the ELISA assays
# Molecular target: recombinant human PCSK9^D374Y protein (human), Q8NBP7
# Experiment: cell-based or functional assay
binder,measurement,value
B1,"LDL (%), LDL uptake by HepG2 cells; antibody 0.67 nM",20%
same,"LDL (%), LDL uptake by HepG2 cells; antibody 6.67 nM",43.8%
same,"LDL (%), LDL uptake by HepG2 cells; antibody 66.70 nM",86.4%
